# From doi:10.1101/2022.03.26.485915 (bioRxiv, 2022)
# B1: Envelope domain III (EDIII) protein of ZIKV (domain or fragment, Zika virus)
# chain: MGVSYSLCTAAFTFTKIPAETLHGTVTVEVQYAGTDGPCKVPAQMAVDMQTLTPVGRLITANPVITESTENSKMMLELDPPFGDSYIVIGVGEKKITHHWHRSGSTIGKGQFYLNELE
# Molecular target: the molecule itself
# Assay: in-vitro amyloid aggregation
protein,measurement,value
B1,binding result,binds
